Measurements published in paper PMC8100066.
pKd: −log10 of the molar value.

Tests used:
[1] = molecular target: mouse CSL (RBPJ), core domain 53-474 53-474 (UniProt P31266); test: isothermal titration calorimetry; details: reference: nonphosphorylated N3RAM peptide; sites S1672
[2] = molecular target: mouse CSL (amino acid residues 53-474), conserved and structurally ordered core domain (mouse) (UniProt P31266); test: ITC; CSL in the cell at 10 μM, RAM peptides in the syringe at 100 μM; 20 °C; 50 mM sodium phosphate, 150 mM sodium chloride; triplicate, 20 injections of 14 μl
Sequence of mouse CSL (amino acid residues 53-474), conserved and structurally ordered core domain (mouse) (P31266 53-474): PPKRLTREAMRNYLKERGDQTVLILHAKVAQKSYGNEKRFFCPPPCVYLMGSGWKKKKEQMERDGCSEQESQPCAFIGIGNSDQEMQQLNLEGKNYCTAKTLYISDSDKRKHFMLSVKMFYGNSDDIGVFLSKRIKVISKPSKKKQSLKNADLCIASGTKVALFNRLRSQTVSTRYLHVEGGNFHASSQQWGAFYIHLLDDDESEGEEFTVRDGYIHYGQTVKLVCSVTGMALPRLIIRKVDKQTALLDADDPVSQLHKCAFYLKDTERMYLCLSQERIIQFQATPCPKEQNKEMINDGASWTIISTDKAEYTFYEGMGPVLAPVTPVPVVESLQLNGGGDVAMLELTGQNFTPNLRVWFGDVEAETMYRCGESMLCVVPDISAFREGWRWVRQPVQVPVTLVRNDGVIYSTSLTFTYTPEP

Row | Substance | KD [1] | pKd [2]
1 | human NOTCH3 (N3RAM peptide) RAM domain, 1665-1682 (from UniProt Q9UM47) N3RAMpS1672 peptide | lost; reference 0.187 | –
2 | human NOTCH3 RAM peptide (residues 1665-1682), nonphosphorylated | – | 6.73
